The values below come from paper PMC9171630 (Proceedings of the National Academy of Sciences of the …, 2022).

Sequences and labels used below:
T1: KaiB–KaiC-ST complex (preformed for 48 h) ( | Synechococcus elongatus …, UniProt Q79PF5;Q79PF4)
T1 sequence 1: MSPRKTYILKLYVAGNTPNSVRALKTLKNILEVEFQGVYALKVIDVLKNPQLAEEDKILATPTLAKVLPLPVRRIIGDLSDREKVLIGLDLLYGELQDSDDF
T1 sequence 2: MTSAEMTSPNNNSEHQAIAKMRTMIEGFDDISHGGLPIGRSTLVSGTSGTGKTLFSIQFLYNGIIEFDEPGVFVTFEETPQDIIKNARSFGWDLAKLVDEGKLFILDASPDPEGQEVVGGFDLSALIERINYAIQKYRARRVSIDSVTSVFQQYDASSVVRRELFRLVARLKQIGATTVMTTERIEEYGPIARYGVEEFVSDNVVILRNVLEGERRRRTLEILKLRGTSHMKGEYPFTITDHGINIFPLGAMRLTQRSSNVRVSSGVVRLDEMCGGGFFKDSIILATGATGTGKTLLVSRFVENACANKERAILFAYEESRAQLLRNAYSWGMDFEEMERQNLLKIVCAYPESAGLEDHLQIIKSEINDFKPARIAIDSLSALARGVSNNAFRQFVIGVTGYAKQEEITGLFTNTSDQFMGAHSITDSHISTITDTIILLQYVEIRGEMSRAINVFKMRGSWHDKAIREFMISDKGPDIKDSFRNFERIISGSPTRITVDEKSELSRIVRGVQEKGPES

T2: KaiB–KaiC^Δ505-ST complex (preformed) ( | Synechococcus elongatus …, UniProt Q79PF5;Q79PF4)
T2 sequence 1: T1 sequence 1
T2 sequence 2: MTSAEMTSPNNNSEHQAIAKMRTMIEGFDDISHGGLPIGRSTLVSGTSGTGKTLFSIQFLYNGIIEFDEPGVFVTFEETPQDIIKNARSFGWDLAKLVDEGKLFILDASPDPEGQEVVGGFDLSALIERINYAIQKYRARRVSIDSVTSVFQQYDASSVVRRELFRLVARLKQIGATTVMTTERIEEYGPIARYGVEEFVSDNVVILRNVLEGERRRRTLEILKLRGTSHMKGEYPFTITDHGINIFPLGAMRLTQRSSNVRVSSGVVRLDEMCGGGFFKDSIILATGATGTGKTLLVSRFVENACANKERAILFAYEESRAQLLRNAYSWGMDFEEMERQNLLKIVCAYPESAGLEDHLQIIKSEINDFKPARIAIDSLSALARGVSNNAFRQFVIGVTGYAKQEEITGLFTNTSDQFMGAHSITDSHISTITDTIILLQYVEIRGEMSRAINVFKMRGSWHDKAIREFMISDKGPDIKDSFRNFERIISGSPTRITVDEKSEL

T3: KaiC^E357Q-AA (Synechococcus elongatus PCC 7942, UniProt Q79PF4 1-519, E357Q | S431A | T432A)
T3 sequence: T1 sequence 2 with E357Q, S431A, T432A

B1: KaiA (natural protein)
chain: MLSQIAICIWVESTAILQDCQRALSADRYQLQVCESGEMLLEYAQTHRDQIDCLILVAANPSFRAVVQQLCFEGVVVPAIVVGDRDSEDPDEPAKEQLYHSAELHLGIHQLEQLPYQVDAALAEFLRLAPVETMADHIMLMGANHDPELSSQQRDLAQRLQERLGYLGVYYKRDPDRFLRNLPAYESQKLHQAMQTSYREIVLSYFSPNSNLNQSIDNFVNMAFFADVPVTKVVEIHMELMDEFAKKLRVEGRSEDILLDYRLTLIDVIAHLCEMYRRSIPRET
B2: KaiB (natural protein)
chain: T1 sequence 1
B3: S431A/T432A KaiC mutant (KaiC-AA) (enzyme)
chain: T1 sequence 2 with S431A, T432A

The target in data set [1] is T1, KaiB–KaiC-ST complex (preformed for 48 …). The data set is described as follows: SEC-MALS. Background: SEC sorts molecules by how far they enter the pores of the column.
Data set [2] deals with T2, KaiB–KaiC^Δ505-ST complex (preformed). The data set is described as follows: SEC-MALS.
In data set [3] the target is B1. Description: SEC-MALS.
Data set [4] addresses T3, KaiC^E357Q-AA. Description: native gel or EMSA.
Data set [5] concerns the molecule itself. Description: crystal structure.

Residue numbers refer to the chain shown, from its start. Numbers in names are those of the source.

With B1, the binding result in data set [1] and in data set [2] was “binds” each time.

As to B2, the binding result in data set [3] and in data set [4] was “binds” each time.

Broadly, the stoichiometry N is the number of molecules, sites or subunits per partner or assembly. Take B3: the “stoichiometry N” value in data set [5] turned out to be 6.
